Reference: patent publication US20100260765A1 (AstraZeneca / MedImmune, published 2010)
Numbering of substitutions follows the chain as printed.

B1: 24C9 (antibody, V domains shown)
VH: EVQLVESGGGLVKPGGSLRLSCAASGFTFSTYSMNWVRQAPGKGLEWVSFISGRSSYIYYADSVKGRFTISRDNAKNSLYLQMNSLRAEDTAVYYCSKDDWFEELWGQGTLVTVSS
VL: DIQMTQSPSSLSASVGDRVTITCRASQGIRNDLGWYQQKPGKAPKRLIYATFSLQSGVPSRFSGSGSGTEFTLTISSLQPEDFATYYCLQHNRYPWTFGQGTKVEIK
notes: Fully human mAb from XenoMouse hybridoma, tested as hybridoma supernatant
B2: 32G7 (antibody, V domains shown)
VH: B1 VH with F29I, T31S, G53S, S56N
VL: B1 VL with G28D, T51A, F52S, R93S, Y94F
notes: as for B1
B3: 33B1 (antibody, V domains shown)
VH: B1 VH with T31S, S33T, S52D, G53S
VL: B1 VL with F52S, Q90H, R93S, Y94F
notes: as for B1
B4: 27D10 (antibody, V domains shown)
VH: QLQLQESGPGLVKPSETLSLTCTVSGGSISSRSDYWGWIRQPPGKGLEWIGTIYYSGSTFYNPSLKSRVTISVDTSKNQFSLKLSSVTAADTAVYYCARQQLVLYYFDYWGQGTLVTVSS
VL: not shown
notes: as for B1
B5: 27A3 (antibody, V domains shown)
VH: B4 VH with S58D, F60Y
VL: EIVLTQSPGTLSLSPGERATLSCRASQSVSSSYLAWYQQKPGQAPRLLIYATSNRATGIPDRFSGSGSGTDFTLTISRLEPEDFAVYYCQQHGSSPPLTFGGGTKVEIK
notes: as for B1
B6: 29D4 (antibody, V domains shown)
VH: B4 VH with D34N, S58H, F60Y, T70S, A90T, V94L, D108E
VL: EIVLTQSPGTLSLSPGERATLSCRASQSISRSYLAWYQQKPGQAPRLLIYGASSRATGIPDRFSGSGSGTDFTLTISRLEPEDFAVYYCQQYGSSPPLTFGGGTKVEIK
notes: as for B1
B7: 32F4 (antibody, V domains shown)
VH: B4 VH with E16G, T21S, S58N, N78K
VL: B5 VL with A25T, A51G, T52A, N54S, I59V, T73S, H92Y
notes: as for B1
B8: 29A3 (antibody, V domains shown)
VH: QVQLQESGPGLVKPSETLSLTCTVSGGSISSYFWSWIRQPAGKGLEWIGRIYFSGRTNYNPSLKSRVTMSVETSKNQFSLKLNSVTAADTAVYYCARDGGWNYDVAFDYWGQGTLVTVSS
VL: QAVLTQPSSLSASPGASASLTCTLRSGINVGTYRIYWYQQKPGSPPQYLLRYKSDSDQLQGSGVPSRFSGSKDASANAGILLISGLQSEDEADYYCMVWHSNTWVFGGGTKLTVL
notes: as for B1
B9: 29H3 (antibody, V domains shown)
VH: QVQLVQSGAEVKKPGASVKVSCKASGYTFTSYDINWVRQATGQGLEWMGWMNPNSGKTGYAQKFQGRVTMTRNTSINTAYMELSSLRSEDTAVYYCARGGYSNLGWFDPWGQGTLVTVSS
VL: DIQMTQSPSSVSASVGDRVTITCRASQGISSWLVWYHQKPGKAPKLLIYGASSLQSGVPSRFSGSGSGTDFTLTISSLQPEDFATYYCQQANNFPFTFGPGTKVDIK
notes: as for B1
B10: 29F7 (antibody, V domains shown)
VH: B9 VH with N73S, N77S
VL: B9 VL with S12F, S31T, V34A, H37Q, L46F, G50A, E81D
notes: as for B1

Experiments:
[1] = biological target: KDR endogenously expressed on human umbilical vein endothelial cells (HUVEC) (human, UniProt P35968 20-1356); experiment: cell-based or functional assay
Sequence of KDR endogenously expressed on human umbilical vein endothelial cells (HUVEC) (P35968 20-1356): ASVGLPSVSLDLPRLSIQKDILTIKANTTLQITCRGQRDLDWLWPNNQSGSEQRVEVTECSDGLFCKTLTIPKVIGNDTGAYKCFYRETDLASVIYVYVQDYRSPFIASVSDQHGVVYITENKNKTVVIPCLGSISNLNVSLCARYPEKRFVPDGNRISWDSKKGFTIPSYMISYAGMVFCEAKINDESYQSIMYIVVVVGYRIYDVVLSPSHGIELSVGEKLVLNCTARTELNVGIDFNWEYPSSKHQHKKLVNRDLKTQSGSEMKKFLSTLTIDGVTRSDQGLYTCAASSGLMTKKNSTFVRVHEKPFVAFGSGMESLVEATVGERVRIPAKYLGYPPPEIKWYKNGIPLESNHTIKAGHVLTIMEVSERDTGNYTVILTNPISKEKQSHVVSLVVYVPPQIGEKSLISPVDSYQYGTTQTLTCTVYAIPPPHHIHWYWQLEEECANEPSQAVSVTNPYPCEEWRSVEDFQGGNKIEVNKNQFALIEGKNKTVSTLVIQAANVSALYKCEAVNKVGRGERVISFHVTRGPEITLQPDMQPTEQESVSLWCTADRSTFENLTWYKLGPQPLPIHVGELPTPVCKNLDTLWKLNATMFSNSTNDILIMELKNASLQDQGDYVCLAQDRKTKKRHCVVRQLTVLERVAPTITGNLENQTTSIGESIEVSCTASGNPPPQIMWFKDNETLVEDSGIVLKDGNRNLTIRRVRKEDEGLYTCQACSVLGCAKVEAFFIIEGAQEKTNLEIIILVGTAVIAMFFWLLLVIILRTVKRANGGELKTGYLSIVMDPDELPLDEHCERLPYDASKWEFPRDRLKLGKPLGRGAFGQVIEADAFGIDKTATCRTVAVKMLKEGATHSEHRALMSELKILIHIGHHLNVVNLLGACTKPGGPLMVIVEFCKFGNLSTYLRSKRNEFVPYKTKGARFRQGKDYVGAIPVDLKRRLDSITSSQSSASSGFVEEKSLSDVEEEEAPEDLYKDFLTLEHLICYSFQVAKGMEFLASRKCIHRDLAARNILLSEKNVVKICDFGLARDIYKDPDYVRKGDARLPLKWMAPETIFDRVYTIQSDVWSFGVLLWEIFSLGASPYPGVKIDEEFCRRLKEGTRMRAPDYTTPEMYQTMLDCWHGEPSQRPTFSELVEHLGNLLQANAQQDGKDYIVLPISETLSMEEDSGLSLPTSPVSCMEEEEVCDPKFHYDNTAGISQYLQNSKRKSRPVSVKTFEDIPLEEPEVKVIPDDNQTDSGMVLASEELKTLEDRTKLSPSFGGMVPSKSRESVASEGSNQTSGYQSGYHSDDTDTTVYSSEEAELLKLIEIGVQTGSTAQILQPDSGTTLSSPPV

[2] = biological target: T1, soluble KDR extracellular domain (ECD) (Calbiochem) (human, UniProt P35968 20-764); experiment: High Antigen ELISA, KDR coat 500 ng/mL, supernatant 1:25
T1 construct: extracellular domain; Bought protein; also called KDR-ECD; VEGF Receptor 2 D1-7, Cat. #676490
T1 sequence (P35968 20-764): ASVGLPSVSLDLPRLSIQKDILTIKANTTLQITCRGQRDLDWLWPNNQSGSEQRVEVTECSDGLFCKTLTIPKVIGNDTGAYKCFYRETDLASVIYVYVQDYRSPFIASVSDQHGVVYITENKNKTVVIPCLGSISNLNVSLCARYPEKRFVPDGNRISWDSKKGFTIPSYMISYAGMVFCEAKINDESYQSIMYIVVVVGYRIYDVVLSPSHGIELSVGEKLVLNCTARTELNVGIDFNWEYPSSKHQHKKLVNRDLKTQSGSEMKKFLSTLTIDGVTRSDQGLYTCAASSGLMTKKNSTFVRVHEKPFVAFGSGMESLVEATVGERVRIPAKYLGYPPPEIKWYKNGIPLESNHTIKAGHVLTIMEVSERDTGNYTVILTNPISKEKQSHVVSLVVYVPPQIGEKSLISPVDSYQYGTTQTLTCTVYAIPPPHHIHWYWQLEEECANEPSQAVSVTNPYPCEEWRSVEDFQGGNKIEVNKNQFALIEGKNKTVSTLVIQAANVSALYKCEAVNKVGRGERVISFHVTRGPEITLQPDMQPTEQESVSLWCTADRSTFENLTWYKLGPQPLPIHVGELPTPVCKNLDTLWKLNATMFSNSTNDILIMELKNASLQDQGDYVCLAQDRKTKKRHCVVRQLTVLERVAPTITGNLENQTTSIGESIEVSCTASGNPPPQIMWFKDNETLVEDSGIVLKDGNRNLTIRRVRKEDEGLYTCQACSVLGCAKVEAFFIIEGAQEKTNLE
Protocol: (§1) ELISA plates were coated with a greater amount of KDR (at 500 ng/mL) in comparison with the Limited Antigen Quantitation assay described below. Sample containing antibody (Ab) was titrated on the KDR-coated ELISA plates and was incubated overnight at 4° C. to allow Ab binding to approach equilibrium. Titration of Ab in sample covered a dilution range of 1:25 to 1:18,225. A standard curve of KDR-specific antibody of known concentration was used to define the linear range of the assay. Data within the linear range were used to derive the relative concentration of KDR-specific Ab in each titrated sample. The high KDR concentration and the overnight incubation limited the effect of Ab affinity, allowing quantitation of the relative amount of KDR-specific Ab present in each sample.

[3] = biological target: T1, soluble KDR extracellular domain (ECD) …; experiment: High Antigen ELISA, KDR coat 500 ng/mL, supernatant 1:75
Protocol: as §1

[4] = biological target: T1, soluble KDR extracellular domain (ECD) …; experiment: High Antigen ELISA, KDR coat 500 ng/mL, supernatant 1:225
Protocol: as §1

[5] = biological target: T1, soluble KDR extracellular domain (ECD) …; experiment: High Antigen ELISA, KDR coat 500 ng/mL, supernatant 1:675
Protocol: as §1

[6] = biological target: T1, soluble KDR extracellular domain (ECD) …; experiment: High Antigen ELISA, KDR coat 500 ng/mL, supernatant 1:2025
Protocol: as §1

[7] = biological target: T1, soluble KDR extracellular domain (ECD) …; experiment: High Antigen ELISA, KDR coat 500 ng/mL, supernatant 1:6075
Protocol: as §1

[8] = biological target: T1, soluble KDR extracellular domain (ECD) …; experiment: Limited Antigen ELISA, KDR coat 25 ng/mL, supernatant 1:25
Protocol: (§2) Samples containing one concentration of antibody (Ab) (1:25 dilution) were incubated overnight to allow Ab binding to approach equilibrium. The low antigen concentration limited the effect of antibody concentration, allowing ranking of the antibodies based on their relative affinity.

[9] = biological target: T1, soluble KDR extracellular domain (ECD) …; experiment: Limited Antigen ELISA, KDR coat 50 ng/mL, supernatant 1:25
Protocol: as §2

[10] = biological target: T1, soluble KDR extracellular domain (ECD) …; experiment: High Antigen ELISA, KDR coat 500 ng/mL, supernatant 1:18,225
Protocol: as §1

[11] = biological target: T1, soluble KDR extracellular domain (ECD) …; experiment: Limited Antigen ELISA, KDR coat 12.5 ng/mL, supernatant 1:25
Protocol: as §2

[12] = biological target: T1, soluble KDR extracellular domain (ECD) …; experiment: Limited Antigen ELISA, KDR coat 6.25 ng/mL, supernatant 1:25
Protocol: as §2

[13] = biological target: T1, soluble KDR extracellular domain (ECD) …; experiment: Limited Antigen ELISA, KDR coat 3.125 ng/mL, supernatant 1:25
Protocol: as §2

| Binder | VEGF-E-mediated Survival % Inhibition (Average) [1] | VEGF-E-mediated Survival % Inhibition (n = 1) [1] | VEGF-E-mediated Survival % Inhibition (n = 2) [1] | ELISA reading [2] | ELISA reading [3] | ELISA reading [4] | ELISA reading [5] | ELISA reading [6] | ELISA reading [7] | ELISA reading [8] | ELISA reading [9] | ELISA reading [10] | ELISA reading [11] | ELISA reading [12] | ELISA reading [13] |
| --- | --- | --- | --- | --- | --- | --- | --- | --- | --- | --- | --- | --- | --- | --- | --- |
| B1 | 72% | 72% | 72% | 3.67 | 2.48 | 2.14 | 1.45 | 0.54 | 0.2 | 0.23 | 0.5 | 0.11 | 0.13 | 0.09 | 0.07 |
| B2 | 62% | 69% | 54% | 2.03 | 1.27 | 0.96 | 0.55 | 0.38 | 0.24 | 0.15 | 0.19 | 0.11 | 0.11 | 0.08 | 0.07 |
| B3 | 67% | 66% | 68% | 2.71 | 2.32 | 1.62 | 1.1 | 0.55 | 0.25 | 0.2 | 0.23 | 0.2 | 0.12 | 0.08 | 0.08 |
| B4 | 57% | 50% | 64% | 4.09 | 4.02 | 3.95 | 3.79 | 1.87 | 0.89 | 0.54 | 1.36 | 0.41 | 0.25 | 0.14 | 0.12 |
| B5 | 58% | 63% | 52% | 4.79 | 4.72 | 5.26 | 3.93 | 2.05 | 0.96 | 1.26 | 2.3 | 0.4 | 0.54 | 0.26 | 0.15 |
| B6 | 66% | 64% | 67% | 4.24 | 5.57 | 6 | 4.09 | 2.06 | 0.66 | 1.87 | 3.31 | 0.25 | 0.8 | 0.41 | 0.23 |
| B7 | 64% | 64% | 64% | 4.79 | 5.56 | 6 | 4.61 | 2.71 | 0.97 | 1.09 | 2.22 | 0.5 | 0.74 | 0.36 | 0.23 |
| B8 | -10% | -1% | -20% | 3.89 | 4.06 | 3.85 | 3.32 | 1.91 | 0.57 | 1.13 | 2.27 | 0.24 | 0.49 | 0.27 | 0.16 |
| B9 | -15% | -19% | -11% | 4.52 | 4.96 | 4.29 | 2.83 | 1.42 | 0.47 | 1.03 | 2.13 | 0.21 | 0.4 | 0.24 | 0.16 |
| B10 | 11% | 15% | 6% | 4.42 | 4.49 | 4.26 | 3.76 | 1.68 | 0.57 | 2.19 | 3.54 | 0.22 | 1 | 0.51 | 0.25 |
